In paper PMC4599368 (Cell reports, 2015):

B1: EBOV NP residues 25–457 ([change]) (domain or fragment)
chain: LTAGLSVQQGIVRQRVIPVYQVNNLEEICQLIIQAFEAGVDFQESADSFLLMLCLHHAYQGDYKLFLESGAVKYLEGHGFRFEVKKRDGVKRLEELLPAVSSGKNIKRTLAAMPEEETTEANAGQFLSFASLFLPKLVVGEKACLEKVQRQIQVHAEQGLIQYPTAWQSVGHMMVIFRLMRTNFLIKFLLIHQGMHMVAGHDANDAVISNSVAQARFSGLLIVKTVLDHILQKTERGVRLHPLARTAKVKNEVNSFKAALSSLAKHGEYAPFARLLNLSGVNNLEHGLFPQLSAIALGVATAHGSTLAGVNVGEQYQQLREAATEAEKQLQQYAESRELDHLGLDDQEKKILMNFHQKKNEISFQQTNAMVTLRKERLAKLTEAITAASLPKTSGHYDDDDDIPFPGPINDDDNPGHQDDDPTDSQDTTIPDV

Columns and labels:
[1] = molecular target: B1; test: ITC
[2] = molecular target: the molecule itself; test: SEC

Binder	fold reduction in binding affinity relative to NPBP [1]	also measured
MTTRTKGRGHTAATTQNDRMPGPELSGWISEQLMTGRIPVSDIFC [EBOV VP35 peptide 1–45]	1.5 fold	–
B1	–	binding result [2]: binds
GWISEQLMTGRIPVSDIFCDIE [EBOV VP35 peptide 27–48]	6.5 fold	–
EBOV VP35 1–168 (domain or fragment) MTTRTKGRGHTAATTQNDRMPGPELSGWISEQLMTGRIPVSDIFCDIENNPGLCYASQMQQTKPNPKTRNSQTQTDPICNHSFEEVVQTLASLATVVQQQTIASESLEQRITSLENGLKPVYDMAKTISSLNRVCAEMVAKYDLLVMTTGRATATAAATEAYWAEHGQ	–	binding result [1]: binds
